{"source": "patent US20260226120A1", "about": "(University of Washington, published 2026)", "note": "Values joined by “and” are separate entries in the source; they are usually repeats but may differ in a detail not shown here. Identical values can stand only once.", "data": [{"molecular_target": "HLA-DQ7 (MHC class II) on autologous antigen presenting cells (BLCL) of patient 5 (human)", "assay": "cell-based or functional assay", "values": [{"binder": "LSDGTGLNAL", "note": "[P17 redesign Des-3 peptide (163-LSDGTGLNAL-172)]", "interferon gamma ELISpot with expanded patient 5 T cells": "~25 spot forming units/10,000 cells"}, {"binder": "WSDGLALNAL", "note": "[native dystrophin exon-6 P17 HLA-DQ7 epitope peptide (163-WSDGLALNAL-172)]", "interferon gamma ELISpot with expanded patient 5 T cells": "~75 spot forming units/10,000 cells and ~3 fold above background"}, {"binder": "WSNGLGLDAL", "note": "[P17 redesign Des-1 peptide (163-WSNGLGLDAL-172)]", "interferon gamma ELISpot with expanded patient 5 T cells": "~25 spot forming units/10,000 cells"}, {"binder": "WSDGTGLNAL", "note": "[P17 redesign Des-2 peptide (163-WSDGTGLNAL-172)]", "interferon gamma ELISpot with expanded patient 5 T cells": "~25 spot forming units/10,000 cells"}]}]}
